Values quoted from earlier work as cited in paper PMC12582428.
Like-named read-outs stand apart in the source and are kept apart here.

Key:
[1] = target: Neuropeptide Y (Homo sapiens) (UniProt P01303)
[2] = target: Neuropeptide Y (Homo sapiens) (UniProt P01303); remark: listed apart in the source

Chain of Neuropeptide Y receptor Y2 (P49146 whole entry): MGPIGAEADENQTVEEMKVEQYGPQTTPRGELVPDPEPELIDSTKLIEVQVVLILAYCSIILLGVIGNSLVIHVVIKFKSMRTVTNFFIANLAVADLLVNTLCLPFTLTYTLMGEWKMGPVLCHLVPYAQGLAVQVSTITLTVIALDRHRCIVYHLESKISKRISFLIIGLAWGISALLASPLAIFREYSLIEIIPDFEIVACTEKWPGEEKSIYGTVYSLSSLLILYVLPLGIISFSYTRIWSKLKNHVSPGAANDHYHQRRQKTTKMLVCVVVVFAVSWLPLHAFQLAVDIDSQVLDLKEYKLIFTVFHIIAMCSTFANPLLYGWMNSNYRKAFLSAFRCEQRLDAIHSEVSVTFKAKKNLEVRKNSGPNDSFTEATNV
Chain of Neuropeptide Y receptor Y1 (P25929 whole entry): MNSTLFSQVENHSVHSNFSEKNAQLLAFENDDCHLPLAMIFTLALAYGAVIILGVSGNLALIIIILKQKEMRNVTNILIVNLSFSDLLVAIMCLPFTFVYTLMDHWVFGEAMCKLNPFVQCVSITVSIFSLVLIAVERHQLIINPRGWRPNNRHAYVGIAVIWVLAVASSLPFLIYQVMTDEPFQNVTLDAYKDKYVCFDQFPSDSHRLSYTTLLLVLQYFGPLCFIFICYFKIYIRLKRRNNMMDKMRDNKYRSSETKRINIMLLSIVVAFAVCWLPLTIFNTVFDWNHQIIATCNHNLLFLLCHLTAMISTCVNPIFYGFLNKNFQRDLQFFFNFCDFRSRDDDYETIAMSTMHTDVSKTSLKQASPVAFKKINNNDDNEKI

Row | Kd [1] [nM] | Kd [2] [nM] | Substance
1 | 0.12 | – | Neuropeptide Y receptor Y2 (from UniProt P49146)
2 | – | 4 | Neuropeptide Y receptor Y1 (from UniProt P25929)
